Drawing on patent US20250122301A1 (IBIO, published 2025), this text covers EC50 for 16 molecules.

T1: CD25 on CD25+ cells (SUDHL-1, HEK IL-2 reporter cells, primary human regulatory T cells) (human, UniProt P01589 22-272)
T1 construct: whole, on cells; also called IL-2Ralpha
T1 sequence (looked up): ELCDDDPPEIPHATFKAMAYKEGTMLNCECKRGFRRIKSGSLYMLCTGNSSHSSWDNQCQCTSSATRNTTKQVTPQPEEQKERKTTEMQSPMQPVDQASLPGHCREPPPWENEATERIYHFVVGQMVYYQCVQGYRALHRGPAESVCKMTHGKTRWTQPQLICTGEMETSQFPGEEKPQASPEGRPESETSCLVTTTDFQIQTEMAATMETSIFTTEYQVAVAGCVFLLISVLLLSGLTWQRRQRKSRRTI

B1: AH04524 (human IgG1 reformatted) (antibody, V domains shown)
VH: QIQLQQSGAELVRPGTSVKMSCKAAGYTFTNYWIGWVKQRPGHGLEWIGDIHPGGDYSNYNEKFKGKATLTADTSSSTAYMSLSSLTSEDSAIYYCTSRNFAYWGQGTLVTVSA
VL: DIVMTQSQKFMSTSVGDRVSVTCKASQNVGTNVAWYQQKPGQSPKALIYSASYRYSGVPDRFTGSGSGTDFTLTISNVQSEDLAEYFCQQYNSYPYTFGGGTKLEIK
notes: also called AH4524
B2: AH05247 (human IgG1 reformatted) (antibody, V domains shown)
VH: QVQLQQSGADLMKPGASVKMSCRASGYTFSNYWIEWIKQRPGHGLEWIGEILPGSGFTNYNENFKGKATFTADTSSNTTYMLLSSLSSEDSAVYYCARGGTSVVHFDSWGQGTTLTVSS
VL: DIVMTQSQKFMSTSVGDRVSVTCKASQNVGTNVAWYQQKPGQSPKALIYSASYRYSGVPDRFTGSGSGTDFTLTISNVQSEDLAEYFCQQYNSYPLTFGGGTKLEIK
B3: AH04526 (human IgG1 reformatted) (antibody, V domains shown)
VH: QVQLQQSGAELVRPGTSVKMSCKAAGYTFTNYWIGWVKQRPGHGLEWIGDIHPGGDYSNYNEKFKGKATLTADTSSSTAYMNLSSLTSEDSAIYYCTSRNFAYWGQGTPVTVSS
VL: DTTVTQSQKFMSTSVGDRVSVTCKASQNVGTNVAWYQQKPGQSPKALIYSASYRYSGVPDRFTGSGSGTDFTLTISNVQSEDLAEYFCQQYNSYPYTFGGGTKLEMK
B4: AH04527 (human IgG1 reformatted) (antibody, V domains shown)
VH: QVQLQQSGAELVRPGTSVKMSCKAAGYTFTNYWIGWVKQRPGHGLEWIGDIHPGGGYIDYNEKFTGKATLTADTSSSTAYMQLSSLTSEDSAIYYCVSRNFAKWGQGTLVTVSA
VL: DVVMTQSQKFMSTSVGDRVSVTCKASQNVGTNVAWYQQKPGQSPKALIYSASYRYSGVPDRFTGSGSGTDFTLTISNVQSEDLAEYFCQQYNSYPYTFGGGTKLEIK
B5: AH04501 (human IgG1 reformatted) (antibody, V domains shown)
VH: QVQLQQPGAELVRPGTSVKMSCKAAGYTFTNYWIGWVKQRPGHGLEWIGDIHPGGDYSNYNEKFKGKATLTADTSSSTAYMNLSSLTSEDSAIYYCTSRNFAYWGQGTLVTVSA
VL: DVVMTQTQKFTSTSVGDRVSVTCKASQNVGTNVAWYQQKPGQSPKALIYSASYRYSGVPDRFTGSGSGTDFTLTISNVQSEDLAEYFCQQYNSYPYTFGGGTKLEIK
notes: also called AH4501
B6: AH04511 (human IgG1 reformatted) (antibody, V domains shown)
VH: QIQLQQSGAELVRPGTSVKMSCKAAGYTFSNYWIGWVKQRPGHGLEWIGDIHPGGGYINYNEKFTGKATLTADTSSSTAYMQLSSLTSEDSAIYYCVSRNFANWGQGTLVTVSA
VL: DIVMSQSQKFMSTSVGDRVSVTCKASQNVGTNVAWYQQKPGQSPKALIYSASYRYSGVPDRFTGSGSGTDFTLTISNVQSEDLAEYFCQQYNSYPYTFGGGTKLEIK
notes: also called AH4511
B7: AH04518 (human IgG1 reformatted) (antibody, V domains shown)
VH: QVQLQQSGAELVRPGTSVKMSCKAAGYTFTNYWIGWVKQRPGHDLEWIGDIHPGGDYSNYNEKFKGKATLTADTSSSTAYMNLSSLTSEDSAIYYCTSRNFAYWGQGTLVTVSA
VL: DILLTQSQKFMSTSVGDRVSVTCKASQNVGTNVAWYQQKPGQSPKALIYSASYRYSGVPDRFTGSGSGTDFTLTISNVQSEDLAEYFCQQYNSYPYTFGGGTKLEIK
notes: also called AH4518
B8: AH04525 (human IgG1 reformatted) (antibody, V domains shown)
VH: QVQLQQSGAELVRPGTSVKMSCKAAGYTFTNYWIGWIKQRPGHGLEWIGDIHPGGDYTNYNEKFKGKATLTADTFSSTAYMQLSSLTSEDSAIYYCTGRNFAYWGQGTLVTVSS
VL: DNVLTQSQKFMSTSVGDRVSVTCKASQNVGTNVAWYQQKPGQSPKALIYSASYRYSGVPDRFTGSGSGTDFTLTISNVQSEDLAEYFCQQYNSYPYTFGGGTKLEMK
notes: also called AH4525
B9: AH04522 (human IgG1 reformatted) (antibody, V domains shown)
VH: QIQLQQSGAELVRPGTSVKMSCKAAGYTFTNYWIGWVKQRPGHGLEWIGDIHPGGGYTNYNEKFKGKATLTADTSSSTAYMQLSSLTSEDSAIYYCTSRNFAYWGQGTLVTVSA
VL: DTTVTQSQKFMSTSVGDRVSVTCKAGQNVGTNVAWYQQKPGQSPKALIYSASYRYSGVPDRFTGSGSGTDFTLTISNVQSEDLAEYFCQQYNSYPYTFGGGTKLEIK
B10: AH04502 (human IgG1 reformatted) (antibody, V domains shown)
VH: QIQLQQSGAELVRPGTSVKMSCKAAGYTFTNYWIGWVKQRPGHGLEWIGDIHPGGGYTNYNEKFKGKATLTADTSSSTADMQLSSLTSEDSAIYYCTSRNFAYWGQGTLVTVSA
VL: DIVMTQSQKFMSTSVGDRVSVTCKASQNVGINVAWYQQKPGQSPKALIYSASYRYSGVPDRFTGSGSGTDFTLTISNVQSEDLAEYFCQQYNSYPYTFGGGTKLEIK
notes: also called AH4502
B11: AH04507 (human IgG1 reformatted) (antibody, V domains shown)
VH: QVQLQQSGAELVRPGTSVKMSCKAAGYTFTNYWIGWVKQRPGHGLEWIGDIHPGGGYIDYNEKFTGKATLTADTSSSTAYMQLSSLTSEDSAIYYCVSRNFAKWGQGTLVTVSA
VL: DTTVTQSQKFMSTSVGDRVSVTCKASQNVGTNVAWYQQKPGQSPKALIYSASYRYSGVPDRFTGSGSGTDFTLTISNVQSEDLAEYFCQQYNSYPYTFGGGTKLEIK
B12: AH04503 (human IgG1 reformatted) (antibody, V domains shown)
VH: QVQLQQPGAELVRPGTSVKMSCKAAGYTFSNYWIGWVKQRPGHGLEWIGDIHPGGGYINYNEKFTGKATLTADTSSSTAYMQLSSLTSEDSAIYYCVSRNFANWGQGTLVTVSA
VL: DIQMTQSQKFMSTSVGDRVSVTCKASQNVGTNVAWYQQKPGQSPKALIYSASYRYSGVPDRFTGSGSGTDFTLTISNVQSEDLAEYFCQQYNSYPWTFGGGTKLEIK
notes: also called AH4503
B13: AH04505 (human IgG1 reformatted) (antibody, V domains shown)
VH: DVQLQQSGAELVRPGTSVKMSCKAAGYTFTNYWIGWVKQRPGHGLEWIGDIHPGGGYTNYNEKFKGKATLTADTSSSTAYMQLSSLTSEGSAIYYCTSRNFAYWGQGTLVTVSA
VL: DTTVTQSQKFMSTSVGDRVSVTCKASQNVGTNVAWYQQKPGQSPKALIYSASYRYSGVPDRFTGSGSGTDFTLTISNVQSEDLAEYFCQQYNSYPYTFGGGTKLEMK
notes: also called AH4505
B14: AH04523 (human IgG1 reformatted) (antibody, V domains shown)
VH: QIQLQQSGAELVRPGTSVKMSCKAAGYTFTNYWIGWVKQRPGHGLEWIGDIHPGGSYTNYNENFKGKATFTADTSSSTTYMQLSSLTSEDSAIYFCTSRNFAKWGQGTPVTVSS
VL: DIVLTQSQKFMSTSVGDRVSVTCKASQNVGTNVAWYQQKPGQSPKALIYSASYRYSGVPDRFTGSGSGTDFTLTISNVQSEDLAEYFCQQYNSYPYTFGGGTKLEIK
notes: also called AH4523
B15: AH05268 (human IgG1 reformatted) (antibody, V domains shown)
VH: QVQLQQSGAELVRPGVSLKISCKGSGYTFTDYAMHWVRQSHAKSLEWIGVISTYSGDALYNQKFKGKATMTVDKSSSTAYLELARLTSDDSAIYYCARGVTFDYWGQGTTLTVSS
VL: DVQMTQSPSSMYASLGERVTFTCKASQDINRYLSWFQQKPGKSPKTLIYRANRLVDGVPSRFSGSGSGQNYSLTISSLEYEDMGIYYCLQYDEFPYTFGGGTKLEIK
B16: AH04750 (human IgG1 reformatted) (antibody, V domains shown)
VH: QVQLQQPGAEMAKPGASVKMSCKASGYTSTAYWIHWVKQRPGQGLEWIGYITPSTGYTEYNQKFEDKATLTADKSSNTAYMQLNSLTSEDSAVYYCARGGYFDYWGQGTTVTVSS
VL: DIQMTQTTSSLSASLGDRVTISCRASQDISNYLNWYQQKPDGTVKLLIYYTSRLHSGVPSRFSGSGSGTDYSLTISNLEQEDIATYFCQQGNTLPPTFGGGTKLEMK

As a reminder, the EC50 is the concentration at which the effect is half-maximal. Lower therefore signals an effect from little substance.

This experiment has as its target T1, CD25 on CD25+ cells (SUDHL-1, HEK IL-2 …). The experiment is described as follows: flow cytometry, dose response on CD25+ SUDHL-1 cells.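 Note: antibody binding to cells read as median fluorescence intensity of an AF647 anti-human Fc secondary, DAPI+ dead cells excluded, 20 min on ice, 5-fold dilutions from 10 ug/mL.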 In general terms: A flow cytometer gives signals particle by particle.
Description: For each cell line, 100,000 cells were plated in a 96 well round bottom plate in cell buffer (PBS+2% HI FBS) and centrifuged. Antibody concentrations from 1-10 ug/mL were used to test the binding of each antibody. Cell were resuspended in 100 uL of antibodies/well and incubated for 20 minutes on ice. After incubation, cells were centrifuged at 300×g for 5 minutes at room temperature, and resuspended and washed with ice cold cell buffer. Cells were then stained with an anti-human Fc secondary antibody conjugated to AF647 (Biolegend) and incubated on ice for 20 min in the dark. Cells were centrifuged, washed and resuspended in cold cell buffer with DAPI and analyzed using flow cytometry (Cytoflex, Becton Dickinson). DAPI+ cell were excluded from analysis. The mean fluorescence intensity was calculated using the median (FlowJo, TreeStar).
In turn, B1 gave an EC50 of 0.116 µg/mL.

Regarding B2, the EC50 was determined as 0.0977 µg/mL.

Consider B3, for which the EC50 came out at 0.164 µg/mL.

For B4, a half-maximal effect (EC50) was put at 0.0959 µg/mL.

Take B5: the EC50 is 0.159 µg/mL.

Take B6: the EC50 worked out at 0.108 µg/mL.

For B7, the response was half-maximal at 0.114 µg/mL (EC50).

For the molecule B8, a half-maximal effect (EC50) was put at 0.109 µg/mL.

The molecule B9 came in with an EC50 of 0.11 µg/mL.

Regarding B10, the EC50 is 0.109 µg/mL.

On to B11, for which the EC50 was 0.089 µg/mL.

Consider B12, for which the EC50 stood at 0.145 µg/mL.

Molecule B13 displayed an EC50 of 0.106 µg/mL.

As to B14, it took 0.108 µg/mL to reach a half-maximal effect (EC50).

Consider B15, for which the EC50 stood at 0.108 µg/mL.

The molecule B16 gave an EC50 of 0.107 µg/mL.
